Here are results for 1 protein from PMC8175417, “Streptococcus pneumoniae pneumolysin and neuraminidase A convert high-density lipoproteins into pro-atherogenic particles” (iScience, 2021).

This series concerns the molecule itself. Nature of the series: non-reducing SDS-PAGE with Western blot; hirudin blood incubated with 200 nM PLY for 1 h at 37 °C; total HDL isolated from the plasma by flotation ultracentrifugation; samples and 50 ng PLY control run under non-reducing conditions; detected with anti-penta-His antibody. (In general: In western blotting, separated proteins are transferred to a membrane and probed.)

B1: Recombinant Streptococcus pneumoniae serotype 2 Pneumolysin (PLY) (natural protein, UniProt Q04IN8 1-471, looked up)
chain: MANKAVNDFILAMNYDKKKLLTHQGESIENRFIKEGNQLPDEFVVIERKKRSLSTNTSDISVTATNDSRLYPGALLVVDETLLENNPTLLAVDRAPMTYSIDLPGLASSDSFLQVEDPSNSSVRGAVNDLLAKWHQDYGQVNNVPARMQYEKITAHSMEQLKVKFGSDFEKTGNSLDIDFNSVHSGEKQIQIVNFKQIYYTVSVDAVKNPGDVFQDTVTVEDLKQRGISAERPLVYISSVAYGRQVYLKLETTSKSDEVEAAFEALIKGVKVAPQTEWKQILDNTEVKAVILGGDPSSGARVVTGKVDMVEDLIQEGSRFTADHPGLPISYTTSFLRDNVVATFQNSTDYVETKVTAYRNGDLLLDHSGAYVAQYYITWDELSYDHQGKEVLTPKAWDRNGQDLTAHFTTSIPLKGNVRNLSVKIRECTGLAWEWWRTVYEKTDLPLVRKRTISIWGTTLYPQVEDKVEND
notes: Pneumolysin (PLY), Streptococcus pneumoniae serotype 2; recombinant protein bought from Cusabio; Detected with a penta-His antibody
Take B1: the binding result is “binds”.
